Results reported in patent US6280972.

Target: methanol dehydrogenase (MDH) of Bacillus brevis S1 strain (NCIMB No. 12524) (Bacillus brevis S1 strain)

methanol dehydrogenase activator YqkG of Bacillus subtilis (product of the yqkG / amd gene)
Activation ratio (%) of methanol dehydrogenase activity (Δ OD 340 nm/min, reduction of NAD+): 250%
